This data set deals with the molecule itself. The data set can be described thus: crystal structure.

B1: wild-type DegS (residues 27-355, without the membrane anchor) (enzyme, E. coli, UniProt P0AEE3 27-355, looked up)
chain: RSLNPLSTPQFDSTDETPASYNLAVRRAAPAVVNVYNRGLNTNSHNQLEIRTLGSGVIMDQRGYIITNKHVINDADQIIVALQDGRVFEALLVGSDSLTDLAVLKINATGGLPTIPINARRVPHIGDVVLAIGNPYNLGQTITQGIISATGRIGLNPTGRQNFLQTDASINHGNSGGALVNSLGELMGINTLSFDKSNDGETPEGIGFAIPFQLATKIMDKLIRDGRVIRGYIGIGGREIAPLHAQGGGIDQLQGIVVNEVSPDGPAANAGIQVNDLIISVDNKPAISALETMDQVAEIRPGSVIPVVVMRDDKQLTLQVTIQEYPATN
B1: the binding result is given as “binds”.
